Source: US20230038878A1 (EVER SUPREME BIO TECHNOLOGY, published 2023)

B1: PD-L1 Nb #15 (VHH)
VHH: HVQLVESGGGLVQPGGSLRLSCAASGFTFSSKAMSWVRQAPGKGLDWVSTINSGGGNTYYSDSVKGRFTISRDNAKNTLYLQLNSLKTEDTAMYYCSRCSDIYCGGQYTYRGQGTLVTVSS
notes: Prepared as a free nanobody; also called PD-L1 nanobody
B2: PD-L1 Nb #3 (VHH)
VHH: EVQLVESGGGLVQPGGSLRLSCVASGFTFSSIGMSWVRQAPGKGLEWVSGLNPVGSHTGYADSVKGRFTISRDNAKNTLHLQLNSLKTEDTAMYYCQRGYTCSGDLCERGQGTQVTVSS
notes: as for B1

Tests used:
[1] = target: HLA-G recombinant protein (Origene, CAT #: TP305216) (human) (UniProt P17693); experiment: competitive ELISA; competitor biotinylated LILRB1 on HLA-G recombinant protein
[2] = target: HLA-G recombinant protein (Origene, CAT #: TP305216) (human) (UniProt P17693); experiment: competitive ELISA; competitor biotinylated KIR2DL4 on HLA-G recombinant protein
[3] = target: HLA-G recombinant protein (Origene, CAT #: TP305216) (human) (UniProt P17693); experiment: competitive ELISA on HLA-G recombinant protein; blocked ligand: biotinylated LILRB1
[4] = target: HLA-G recombinant protein (Origene, CAT #: TP305216) (human) (UniProt P17693); experiment: competitive ELISA on HLA-G recombinant protein; blocked ligand: biotinylated KIR2DL4
[5] = target: T1, PD-L1 recombinant protein (Sino Biological, CAT #: 10084-H05H) (UniProt Q9NZQ7 19-239); experiment: SPR
T1 construct: Bought protein; also called programmed death-ligand 1
T1 sequence (Q9NZQ7 19-239 limits assumed): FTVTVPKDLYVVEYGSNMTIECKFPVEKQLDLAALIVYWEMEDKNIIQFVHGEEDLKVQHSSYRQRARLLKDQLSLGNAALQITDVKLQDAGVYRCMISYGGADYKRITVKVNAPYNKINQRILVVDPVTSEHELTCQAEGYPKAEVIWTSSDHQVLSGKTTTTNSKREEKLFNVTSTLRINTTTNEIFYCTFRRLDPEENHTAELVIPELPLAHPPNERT
Method: The kinetic analysis of the PD-L1 nanobodies of the present disclosure and the binding affinity analysis of the PD-L1 recombinant protein (Sino Biological, CAT #: 10084-H05H) are performed by SPR analysis.

[6] = target: T2, PD-L1 on PD-L1 aAPC/CHO-K1 cells (PD-1/PD-L1 Blockade Bioassay Kit, Promega) (UniProt Q9NZQ7 19-290, limits assumed); experiment: cell-based or functional assay
T2 sequence (Q9NZQ7 19-290 limits assumed): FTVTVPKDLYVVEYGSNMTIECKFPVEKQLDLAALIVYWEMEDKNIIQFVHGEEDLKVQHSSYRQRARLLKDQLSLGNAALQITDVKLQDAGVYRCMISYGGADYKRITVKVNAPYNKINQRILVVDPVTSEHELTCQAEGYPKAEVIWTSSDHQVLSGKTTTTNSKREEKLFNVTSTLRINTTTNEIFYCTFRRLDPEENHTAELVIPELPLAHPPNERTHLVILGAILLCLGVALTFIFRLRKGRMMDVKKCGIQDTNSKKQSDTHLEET

[7] = target: T2, PD-L1 on PD-L1 aAPC/CHO-K1 cells …; experiment: cell-based or functional assay; remark: listed apart in the source

Molecule | IC50 [1] [nM] | IC50 [2] [nM] | IC50 (read off the curve) [3] [nM] | IC50 (read off the curve) [4] [nM] | Kd [5] [nM] | koff [5] [s⁻¹] | kon [5] [M⁻¹ s⁻¹] | IC50 for the PD-1 blocking activity (PD-1/PD-L1 Blockade Bioassay, luminescence) [6] [nM] | IC50 (read off the curve); PD-1/PD-L1 Blockade Bioassay (Promega), bioluminescence (RLU), which rises with the concentration [7] [nM]
HLA-G monoclonal antibody (87G, ThermoFisher) | > 1000 | 104 | 7000 | 100 |  |  |  |  | 
B1 |  |  |  |  | 0.91 | 0.000936 | 1.03e+06 | ~0.48 | 
B2 |  |  |  |  | 0.86 | 0.00521 | 6.04e+06 | ~37.7 | ~20
